Usually Kd stands for the concentration at which binding is half-saturated.

The target in the test is human IGF2R extra-cellular domains 1-15 fused at the C-terminal to rat CD4 (domains 3 + 4), biotin acceptor … (human, UniProt P11717 41-2304, biotin on the BirA acceptor tag). The experiment in a line: SPR.

B1: bovine β-glucuronidase (290 KD) (enzyme)
chain: LQGGMLYPRESRSRERKELDGLWSFRADFSDNRRQGFEQQWYRAPLRESGPTLDMPVPSSFNDVGQDGQLRSFVGWVWYEREITLPQRWTEDLGTRVVLRIGSAHYYAIVWVNGVHVLEHEGGHLPFEADISKLVQSGPLSSCRITIAINNTLSPHTLPPGTILYKTDPSMYPKGYFVQNTKFDFFNYAGLHRSVLLYTTPTTYIDDITVTTDMDQDIGLVNYQIIVQGSDHFQVDVSLLDEEGKVMAKGAGAEGQLQVPSAHLWWPYLMHEHPAYLYSLEVKLTAQTAVGPVSDFYTLPVGIRTVAVTKSQFLINGKPFYFRGVNKHEDADIRGKGFDWPLLVKDFNLLRWLGANAFRTSHYPYSEEVLQLCDRYGIVVIDESPGVGIVLVESFSNVSLQHHLEVMEEMIRRDKNHPAVVMWSLANEPASFLKPAGYYFKTLIAHTKALDPSRPVTFVTNTNYEADLGAPYVDIICVNSYYSWYHDYGHMEVIQLQLATQFENWYKAYQKPMIQSEYGADAIEGFHEDPPLMFSEEYQKGLLQQYHVVLDQKRKEYVVGELIWNFADFMTNQSPVRMIGNRKGIFTRQRQPKSAAFLLRERYWKLANETRYQRSAVTSQCVGSGLFTV
modifications: mannose 6-phosphate (M6P-beta-glucuronidase)
For B1, the Kd amounted to 52.3 nM.

B2: human glu-plasminogen (88 KD) (natural protein)
chain: EPLDDYVNTQGASLFSVTKKQLGAGSIEECAAKCEEDEEFTCRAFQYHSKEQQCVIMAENRKSSIIIRMRDVVLFEKKVYLSECKTGNGKNYRGTMSKTKNGITCQKWSSTSPHRPRFSPATHPSEGLEENYCRNPDNDPQGPWCYTTDPEKRYDYCDILECEEECMHCSGENYDGKISKTMSGLECQAWDSQSPHAHGYIPSKFPNKNLKKNYCRNPDRELRPWCFTTDPNKRWELCDIPRCTTPPPSSGPTYQCLKGTGENYRGNVAVTVSGHTCQHWSAQTPHTHNRTPENFPCKNLDENYCRNPDGKRAPWCHTTNSQVRWEYCKIPSCDSSPVSTEQLAPTAPPELTPVVQDCYHGDGQSYRGTSSTTTTGKKCQSWSSMTPHRHQKTPENYPNAGLTMNYCRNPDADKGPWCFTTDPSVRWEYCNLKKCSGTEASVVAPPPVVLLPDVETPSEEDCMFGNGKGYRGKRATTVTGTPCQDWAAQEPHRHSIFTPETNPRAGLEKNYCRNPDGDVGGPWCYTTNPRKLYDYCDVPQCAAPSFDCGKPQVEPKKCPGRVVGGCVAHPHSWPWQVSLRTRFGMHFCGGTLISPEWVLTAAHCLEKSPRPSSYKVILGAHQEVNLEPHVQEIEVSRLFLEPTRKDIALLKLSSPAVITDKVIPACLPSPNYVVADRTECFITGWGETQGTFGAGLLKEAQLPVIENKVCNRYEFLNGRVQSTELCAGHLAGGTDSCQGDSGGPLVCFEKDKYILQGVTSWGLGCARPNKPGVYVRVSRFVTWIEGVMRNN
Take B2: the Kd was 43.5 nM.
